Measurements published in US20240132589A1.

Assays:
[1] = molecular target: Human LILRB2 on transiently transfected HEK293-6E cells (human) (UniProt Q8N423); assay: flow cytometry, transiently transfected HEK293-6E cells
[2] = molecular target: Human LILRB2 on stably transduced HEK293T cells (human) (UniProt Q8N423); assay: flow cytometry competition on HEK293T-LILRB2 cells; blocking mAb 1 µg/mL; competitor: biotinylated B2Comp1
[3] = molecular target: Human LILRB2 on stably transduced HEK293T cells (human) (UniProt Q8N423); assay: flow cytometry competition on HEK293T-LILRB2 cells; blocking mAb 1 µg/mL; competitor: biotinylated B2Comp2
[4] = molecular target: Human LILRB2 on stably transduced HEK293T cells (human) (UniProt Q8N423); assay: flow cytometry competition on HEK293T-LILRB2 cells; blocking mAb 10 µg/mL; competitor: biotinylated B2Comp1
[5] = molecular target: Human LILRB2 on stably transduced HEK293T cells (human) (UniProt Q8N423); assay: flow cytometry competition on HEK293T-LILRB2 cells; blocking mAb 10 µg/mL; competitor: biotinylated B2Comp2
[6] = molecular target: Human LILRB2 on stably transduced HEK293T cells (human) (UniProt Q8N423); assay: flow cytometry competition on HEK293T-LILRB2 cells; blocking mAb 0.1 µg/mL; competitor: biotinylated B2Comp1
[7] = molecular target: Human LILRB2 on stably transduced HEK293T cells (human) (UniProt Q8N423); assay: flow cytometry competition on HEK293T-LILRB2 cells; blocking mAb 0.1 µg/mL; competitor: biotinylated B2Comp2

Chain of Human LILRB2 on stably transduced HEK293T cells (human) (Q8N423 other isoform, or with tags, fused parts or gaps limits assumed): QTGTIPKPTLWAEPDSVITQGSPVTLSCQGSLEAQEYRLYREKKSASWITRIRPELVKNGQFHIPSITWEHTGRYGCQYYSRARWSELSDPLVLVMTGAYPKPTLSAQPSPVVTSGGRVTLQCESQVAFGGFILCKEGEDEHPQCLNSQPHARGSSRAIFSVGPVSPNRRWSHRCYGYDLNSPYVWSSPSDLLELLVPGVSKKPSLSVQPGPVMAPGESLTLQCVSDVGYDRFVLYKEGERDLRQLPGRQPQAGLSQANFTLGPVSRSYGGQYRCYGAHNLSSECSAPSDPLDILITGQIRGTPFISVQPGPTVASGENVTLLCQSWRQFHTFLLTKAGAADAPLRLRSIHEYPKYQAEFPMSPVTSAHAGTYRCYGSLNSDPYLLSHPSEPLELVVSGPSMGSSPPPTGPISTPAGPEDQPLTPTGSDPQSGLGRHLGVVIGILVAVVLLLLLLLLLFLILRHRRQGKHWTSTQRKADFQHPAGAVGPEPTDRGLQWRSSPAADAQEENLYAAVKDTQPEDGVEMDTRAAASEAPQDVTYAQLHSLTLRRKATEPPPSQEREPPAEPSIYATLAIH
Chain of Human LILRB2 on transiently transfected HEK293-6E cells (human) (Q8N423 22-597): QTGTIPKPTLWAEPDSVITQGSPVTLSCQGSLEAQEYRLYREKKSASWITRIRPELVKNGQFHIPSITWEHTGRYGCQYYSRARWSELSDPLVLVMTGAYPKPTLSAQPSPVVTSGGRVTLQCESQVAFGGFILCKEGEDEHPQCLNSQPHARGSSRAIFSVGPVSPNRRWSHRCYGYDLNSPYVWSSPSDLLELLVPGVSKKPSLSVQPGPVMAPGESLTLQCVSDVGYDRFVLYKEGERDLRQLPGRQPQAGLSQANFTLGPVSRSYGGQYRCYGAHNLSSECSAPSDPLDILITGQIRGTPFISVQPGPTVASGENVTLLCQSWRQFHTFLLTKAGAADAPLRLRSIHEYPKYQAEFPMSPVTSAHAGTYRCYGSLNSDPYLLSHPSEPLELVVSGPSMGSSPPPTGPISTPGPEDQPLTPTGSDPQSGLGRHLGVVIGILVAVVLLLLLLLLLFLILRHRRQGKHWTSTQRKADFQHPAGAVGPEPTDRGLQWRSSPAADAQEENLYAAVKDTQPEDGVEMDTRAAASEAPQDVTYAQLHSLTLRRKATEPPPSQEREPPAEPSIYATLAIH

B1: B2Comp2 (antibody, IgG4, V domains shown)
VH: QITLKESGPTLVKPTQTLTLTCTFSGFSLNTYAMGVSWIRQPPGKALEWLASIWWNGNKYNNPSLKSRLTVTKDTSKNQVVLTMTNMDPVDTATYYCAHSRIIRFTDYVMDAWGQGTLVTVSS
VL: DIQMTQSPSSLSTSVGDRVTITCRASEDIYNDLAWYQQKPGKAPKLLIYNANSLHTGVASRFSGSGSGTDFTFTISSLQPEDVATYFCQQYYDYPLTFGQGTKLEIKR
modifications: Biotin-conjugated when used as the labelled ('hot') benchmark antibody in the binning assay. The site is not stated and is not carried by the letters.
- Bmax (MFI) [1]: 9630 MFI
- % Blocking of B2Comp1 Binding [2]: 78%
- % Blocking of B2Comp2 Binding [3]: 97%
- % Blocking of B2Comp1 Binding [4]: 80%
- % Blocking of B2Comp2 Binding [5]: 100%
- % Blocking of B2Comp1 Binding [6]: 47%
- % Blocking of B2Comp2 Binding [7]: 44%
